This is an account of results in article PMC9953421, “Regulation of CRISPR-Associated Genes by Rv1776c (CasR) in Mycobacterium tuberculosis”.

This series addresses T1, CasR (Rv1776c) (UniProt O33179 1-186).
T1 sequence: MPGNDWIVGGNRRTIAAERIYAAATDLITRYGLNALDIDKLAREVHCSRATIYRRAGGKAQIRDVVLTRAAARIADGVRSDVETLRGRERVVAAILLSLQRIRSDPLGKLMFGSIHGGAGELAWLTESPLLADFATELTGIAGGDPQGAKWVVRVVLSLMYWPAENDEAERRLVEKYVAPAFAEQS
Description: EMSA; 0-2 uM protein. As to conditions: protein: recombinant, tags: N-terminal His (pET28a), chain copies: 2.

B1: casRp1 (dsDNA)
DNA 1: AATAAGTAAGGCTTGTGTCTCACTATGA
DNA 2: TCATAGTGAGACACAAGCCTTACTTATT
Turning to B1, the binding result (blunt) is reported as “binds”.

B2: csm6p1 (dsDNA)
DNA 1: CGATAGTTGGCCCAATTGTCTATCTGGGC
DNA 2: GCCCAGATAGACAATTGGGCCAACTATCG
Take B2: the binding result is listed as “binds”.
